The values below come from US20210047432A1 (DIACCURATE, published 2021).

T1: human FcγRIIB (human, UniProt P31994 43-310)
T1 construct: whole, on cells; also called hFcγRIIB
T1 sequence (looked up): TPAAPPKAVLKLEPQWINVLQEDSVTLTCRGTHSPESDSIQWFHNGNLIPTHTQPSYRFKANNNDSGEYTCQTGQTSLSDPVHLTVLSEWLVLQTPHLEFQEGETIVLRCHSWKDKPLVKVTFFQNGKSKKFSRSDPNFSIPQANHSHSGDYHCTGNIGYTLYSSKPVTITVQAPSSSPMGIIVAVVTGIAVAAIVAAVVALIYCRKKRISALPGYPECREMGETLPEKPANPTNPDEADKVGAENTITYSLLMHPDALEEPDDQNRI

B1: human FcγRIIA (H131) (receptor, UniProt P12318 34-317, looked up)
chain: QAAAPPKAVLKLEPPWINVLQEDSVTLTCQGARSPESDSIQWFHNGNLIPTHTQPSYRFKANNNDSGEYTCQTGQTSLSDPVHLTVLSEWLVLQTPHLEFQEGETIMLRCHSWKDKPLVKVTFFQNGKSQKFSHLDPTFSIPQANHSHSGDYHCTGNIGYTLFSSKPVTITVQVPSMGSSSPMGIIVAVVIATAVAAIVAAVVALIYCRKKRISANSTDPVKAAQFEPPGRQMIAIRKRQLEETNNDYETADGGYMTLNPRAPTDDDKNIYLTLPPNDHVNSNN
notes: whole, on cells; Allelic variant with His at 131 (mature numbering as printed)
B2: human FcγRIIIB(NA1) (receptor, UniProt O75015 17-200, looked up)
chain: GMRTEDLPKAVVFLEPQWYRVLEKDSVTLKCQGAYSPEDNSTQWFHNENLISSQASSYFIDAATVDDSGEYRCQTNLSTLSDPVQLEVHVGWLLLQAPRWVFKEEDPIHLRCHSWKNTALHKVTYLQNGKDRKYFHHNSDFHIPKATLKDSGSYFCRGLVGSKNVSSETVNITITQGLAVSTIS
notes: whole, on cells
B3: human FcγRIIIB(NA2) (receptor, UniProt O75015 17-200, looked up)
chain: B2 chain with R20S, N49S, D66N, V90I
notes: whole, on cells
B4: human FcγRIIIB(SH) (receptor, UniProt O75015 17-200, looked up)
chain: B2 chain with R20S, N49S, A62D, D66N, V90I
notes: whole, on cells
B5: human FcγRIIA(R131) (receptor, UniProt P12318 34-317, looked up)
chain: B1 chain with H134R
notes: whole, on cells; Allelic variant with Arg at 131 (so in the source)
B6: humanized antibody #2B1 (mutations L234A & L235E) (antibody, human IgG1, kappa)
heavy: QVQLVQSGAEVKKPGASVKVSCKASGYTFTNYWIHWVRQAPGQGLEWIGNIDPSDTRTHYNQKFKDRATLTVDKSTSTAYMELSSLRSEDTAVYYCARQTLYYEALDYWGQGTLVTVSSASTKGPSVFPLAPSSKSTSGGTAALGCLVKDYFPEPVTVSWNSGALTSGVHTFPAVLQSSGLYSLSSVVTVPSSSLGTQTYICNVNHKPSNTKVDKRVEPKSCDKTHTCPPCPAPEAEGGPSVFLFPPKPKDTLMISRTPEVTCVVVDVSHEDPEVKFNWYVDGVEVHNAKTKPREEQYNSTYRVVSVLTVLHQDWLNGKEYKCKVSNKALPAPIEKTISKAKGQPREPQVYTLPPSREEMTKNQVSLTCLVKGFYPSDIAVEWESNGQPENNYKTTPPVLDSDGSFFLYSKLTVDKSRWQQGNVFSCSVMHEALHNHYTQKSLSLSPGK
light: EIVMTQSPATLSVSPGERATLSCKASQDVSTAVAWYQQKPGQAPRLLIYWASTRHTGIPARFSGSRSGTEYTLTISSLQSEDFAVYYCQQDYSTPPTFGGGTKVEIKRTVAAPSVFIFPPSDEQLKSGTASVVCLLNNFYPREAKVQWKVDNALQSGNSQESVTEQDSKDSTYSLSSTLTLSKADYEKHKVYACEVTHQGLSSPVTKSFNRGEC
notes: #2B with L234A and L235E in the heavy chain constant region; also called Ab #2B1; copies: 2 + 2
B7: humanized antibody #2A (antibody, V domains shown)
VH: QVQLVQSGAEVKKPGASVKVSCKASGYTFTNYWIHWVRRAPGQGLEWIGNIDPSDTRTHYNQKFKDRATLTVDKSTSTAYMELSSLRSEDTAVYYCARQTLYYEALDYWGQGTLVTVSS
VL: EIVMTQSPATLSVSPGERATLSCKASQDVSTAVAWYQEKPGQAPRLLIYWASTRHTGIPARFSGSRSGTEYTLTISSLQSEDFAVYYCQQDYSTPPTFGGGTKVEIK
notes: CDR-grafted 14G9; version A keeps Arg H39 and Glu L38; also called Ab #2A

Assay [1] has as its target immune complex of #2B2 with sPLA2-GIB (human, UniProt P04054 23-148). As to the kind of experiment: flow cytometry, antibody-antigen immune complex on CHO cells expressing the receptor. Here is the method: Antibody-antigen immune complex were generated by co-incubation of 10 µg/ml of humanized antibodies and 5 μg/ml of sPLA2-GIB for 30 min at 37° C. Immune complexes were then incubated with 1×10⁵ CHO cells stably expressing human FcγRs for 30 min on ice. The cells were then washed, detached, fixed, and analyzed by flow cytometry (FACSCalibur; BD Biosciences).
(§1) The binding of monomeric #2B, #2B1 and #2B2 to human FcγRs was tested by flow cytometry by incubating the mAbs with CHO cells stably expressing human FcγRI, FcγRIIA (H131), FcγRIIA(R131), FcγRIIB, FcγRIIIA(F176), FcγRIIIA(V176), FcγRIIIB(NA1), FcγRIIIB(NA2), and FcγRIIIB(SH), (REF P. Bruhns). As presented in FIG. 9, #2B is binding to hFcγRI and hFcγRIIIA(V176) only, whereas no monomeric binding of #2B1 and #2B2 to all tested hFcγRs was observed. Antibody-antigen immune complex was tested by first incubating the mAb with the antigen and then, incubating the immune complexes formed with CHO cells stably expressing human FcγRs. The immune complexe of #2B is binding to all tested hFcγRs, except hFcγRIIB (FIG. 10). Weak binding is observed for immune complex of #2B1 to hFcγRIIIA(V176) (data not shown), whereas no immune complex binding of #2B2 to any tested hFcγRs (data not shown).
A general note: A flow cytometer gives signals particle by particle.

Assay [2] concerns the target T2, recombinant human pro-sPLA2-GIB (human, UniProt P04054 16-148).
T2 construct: also called pro-sPLA2-IB; proPLA2-GIB
As to the kind of experiment: SPR (BIAcore 2000), antibody captured, antigen in solution. Here is the method: (§2) The affinity constants (KD) of the pro-sPLA2-GIB and sPLA2-GIB binding to the #2B, #2B1 and #2B2 antibodies were determined by surface kinetics on a real-time biosensor surface plasmon resonance assay (BIAcore™). More specifically, the affinity of the antibodies for human pro-sPLA2-IB and sPLA2-IB was measured using a BIAcore® 2000. The antibody was captured on an anti-mouse IgG surface and exposed to various concentrations of recombinant pro-sPLA2-IB and sPLA2-IB protein. Kinetic analysis using BIAevaluation™ software was performed to obtain the association and dissociation rate constants.
(§3) The affinity constants (KD) of the pro-sPLA2-GIB and sPLA2-GIB binding to #2B1 and #2B2 were determined by surface kinetics on a real-time biosensor surface plasmon resonance assay (BIAcore™). The antibody was captured on an anti-mouse IgG surface and exposed to various concentrations of recombinant pro-sPLA2-IB and sPLA2-IB protein. Kinetic analysis using BIAevaluation™ software was performed to obtain the association and dissociation rate constants (Table 7).

The target in assay [3] is T3, recombinant human sPLA2-GIB (mature secreted group IB pancreatic phospholipase A2) (human, UniProt P04054 23-148).
T3 construct: also called sPLA2-IB; PLA2-GIB mature form
T3 sequence (P04054 23-148): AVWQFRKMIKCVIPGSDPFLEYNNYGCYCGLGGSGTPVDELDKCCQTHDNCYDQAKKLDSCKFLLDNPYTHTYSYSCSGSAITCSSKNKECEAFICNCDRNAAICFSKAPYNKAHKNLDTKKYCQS
The assay is described as above. Here is the method: as §2, §3

In assay [4] the target is B2. As to the kind of experiment: flow cytometry, monomeric IgG on CHO cells expressing the receptor. Here is the method:
(§4) Monomeric IgG binding was tested by incubating the #2B, #2B1 and #2B2 antibodies (100 ng/mL) with 1×10⁵ CHO cells stably expressing human FcγRs for 30 min on ice. The cells were then washed, detached, fixed, and analyzed by flow cytometry (FACSCalibur; BD Biosciences).
as §1

For assay [5], the target named is T4, human FcγRI (human, UniProt P12314 16-374).
T4 construct: whole, on cells; also called hFcγRI
T4 sequence (P12314 16-374): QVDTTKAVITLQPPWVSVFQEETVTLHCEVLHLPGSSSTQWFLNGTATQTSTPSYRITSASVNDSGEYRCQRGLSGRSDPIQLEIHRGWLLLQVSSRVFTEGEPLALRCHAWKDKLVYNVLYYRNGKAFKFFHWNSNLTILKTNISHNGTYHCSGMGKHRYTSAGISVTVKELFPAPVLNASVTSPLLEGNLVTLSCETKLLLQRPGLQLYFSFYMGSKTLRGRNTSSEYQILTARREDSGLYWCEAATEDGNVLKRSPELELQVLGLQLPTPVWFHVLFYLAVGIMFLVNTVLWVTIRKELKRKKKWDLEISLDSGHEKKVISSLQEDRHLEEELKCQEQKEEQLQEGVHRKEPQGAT
Described as above. Here is the method:
as §4, §1

Assay [6] addresses T1, human FcγRIIB. Described as above. Here is the method:
as §4, §1

In assay [7] the target is T5, human FcγRIIIA(F176) (human, UniProt P08637 17-254).
T5 construct: whole, on cells
T5 sequence (P08637 17-254): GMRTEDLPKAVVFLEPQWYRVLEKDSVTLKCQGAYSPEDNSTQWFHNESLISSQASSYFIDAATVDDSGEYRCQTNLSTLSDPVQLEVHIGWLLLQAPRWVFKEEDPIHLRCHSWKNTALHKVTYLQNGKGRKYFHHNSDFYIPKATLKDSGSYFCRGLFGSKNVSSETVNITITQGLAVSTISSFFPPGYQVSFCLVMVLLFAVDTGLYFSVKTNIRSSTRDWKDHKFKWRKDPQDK
The assay is described as above. Here is the method:
as §4, §1

For assay [8], the target named is B3. Described as above. Here is the method:
as §4, §1

For assay [9], the target named is T6, human FcγRIIIA(V176) (human, UniProt P08637 17-254).
T6 construct: whole, on cells; also called hFcγRIIIA(V176)
T6 sequence (P08637 17-254 F176V limits assumed): as the sequence (P08637 17-254) above, with F160V counted along it
Described as above. Here is the method: as §4, §1

In assay [10] the target is B1. Described as above. Here is the method: as §4, §1
Assay [11] concerns the target B5. The assay is described as above. Here is the method:
as §4, §1

The target in assay [12] is B4. The assay is described as above. Here is the method: as §4, §1
Assay [13] concerns the target T2, recombinant human pro-sPLA2-GIB. As to the kind of experiment: competitive ELISA: constant antibody premixed with dilutions of soluble antigen, free antibody caught on antigen-coated plate. Here is the method:
(§5) Binding affinities of the humanized antibodies to pro-sPLA2-GIB and sPLA2-GIB were measured by plate-based competition immunoassay. For the competition ELISA, briefly, constant amounts of antibody at different levels were premixed with serial dilutions of antigen protein, human sPLA2-GIB or pro-sPLA2-GIB, ranging from 0 to 10 μg/ml, and incubated for two hours at room temperature to reach pseudo-binding equilibrium between the antibody and antigen. These solutions were then transferred to 96-well sPLA2-GIB or pro-sPLA2-GIB pre-coated plates to allow the free-antibody in the mixtures to bind to plate-coated sPLA2-GIB or pro-sPLA2-GIB. The plates were typically coated with 30 to 100 ng of human sPLA2-GIB or pro-sPLA2-GIB protein in PBS solution overnight at 4° C. followed by BSA nonspecific blocking. After washing off excess antibody in solution, plate-bound antibodies were detected with an HRP-conjugated goat anti-mouse IgG or IgA polyclonal antibody reagent and developed using colorimetric substrate. The dependency of the signals on the concentrations of antigen in solution was analyzed with a 4-parameter fit analysis using Prism™ software (Graph Pad) and reported as IC50.
(§6) The respective binding affinities of the humanized antibodies to human pro-sPLA2-GIB and human sPLA2-GIB were measured by plate-based competition immunoassay. Briefly, constant amounts of antibody at different levels were premixed with serial dilutions of antigen proteins to reach pseudo-binding equilibrium between the antibody and antigen. These solutions were then transferred to antigen pre-coated plates to allow the free-antibody in the mixtures to bind to plate-coated sPLA2-GIB or pro-sPLA2-GIB. Plate-bound antibodies were detected with an HRP-conjugated polyclonal antibody. Data were fitted with a 4PL logistic non-linear regression model and the relative IC50 values were estimated from the model (Table 4).
In general terms: In an ELISA, binding on a coated surface is turned into a signal by an enzyme label.

The target in assay [14] is T3, recombinant human sPLA2-GIB (mature …). The assay is described as above. Here is the method:
as §5, §6

In general, Kd refers to the equilibrium constant for the complex coming apart. As a reminder, the koff is the first-order rate constant of dissociation. Usually kon stands for a measure of how fast the partners come together. Usually t½ stands for the time in which the quantity being followed falls by half. As a reminder, the IC50 is the concentration at which inhibition is half-maximal.

Numbering of substitutions follows the chain as printed. Names may count otherwise.

T2 sequence (P04054 16-148): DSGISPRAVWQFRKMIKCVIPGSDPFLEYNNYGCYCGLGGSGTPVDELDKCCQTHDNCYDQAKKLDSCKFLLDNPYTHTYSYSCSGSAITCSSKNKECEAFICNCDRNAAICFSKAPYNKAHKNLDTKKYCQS
immune complex of #2B2 with sPLA2-GIB, sequence (P04054 23-148, one chain of several): as the sequence (P04054 23-148) above

Turning to B1, the binding result in [1] is listed as “no binding”.

In the case of B2, in assay [1], the binding result is recorded as “no binding”.

As for B3, the binding result in [1] is “no binding”.

Consider B4, for which, in assay [1], the binding result was “no binding”.

On to B5, for which the binding result in [1] is given as “no binding”.

With B6, the Kd in [2] came out at 853 nM; in assay [3] it was 0.729 nM. In addition, the koff in assay [2] was found to be 0.155 s⁻¹; in [3], 0.00203 s⁻¹. Besides, the figures for the kon in [2] and in assay [3] were 181000 M⁻¹ s⁻¹ and 2.78e+06 M⁻¹ s⁻¹, respectively. The results for the t½ in [2] and in assay [3] were 0.074 min and 5.7 min, respectively. Also, the binding result in [4], in assay [5], in assay [6], in assay [7], in [8] and in assay [9] was “no binding (tested: 100 ng/mL)” throughout. For the same molecule, the binding result in [10], in [11] and in assay [12] was “no binding (tested: 100 ng/mL)” in each case.

For the molecule B7, the results for the IC50 in assay [13] and in assay [14] were 216 nM and 1.9 nM, respectively.
